Source: patent US20060234293A1, “Polypeptide methods and means” (priority 2002, published 2006)

Molecular target: T1, Biotinylated BRC Repeat 4 peptide (Bio-BRC4) (Homo sapiens, UniProt P51587)
T1 construct: host or cells: chemical synthesis for the peptide; E. coli BL21 Codon Plus for RAD51 F86E
Experiment: SPR binding assay of RAD51 F86E on BRC4 coupled-chip
Conditions: 5 μM in HBSEP, 60 seconds contact time; FIG. 9(a)
Description: Measurements were performed on the BIACORE X biosensor (BIACORE AB, Uppsala, Sweden). A continuous flow of de-gassed and 0.22 μm filtered HBSEP running buffer was employed at a constant temperature of 25° C.
Flow cells 1 and 2 of a pre-coated streptavidin Sensor chip SA were conditioned with three sequential 20 μl injections of 1 M NaCl, 50 mM NaOH at a flow rate of 20 μl/min.
Biotinylated BRC Repeat 4 peptide (Bio-BRC4) was immobilized to a level of 200 RU by affinity capture onto Flow cell 2 only. This was achieved by two 20 μl injections of 10 nM Bio-BRC4 in HBS-EP at a flow rate of 20 μl/min. Flow cell 1 represented a reference surface to correct for any refractive index variations and thus was not derivated. Flow cells 1 and 2 were both subsequently treated with three successive injections of 40 μl regeneration solution (10 mM Glycine pH 2.5) at a flow rate of 40 μl/min to ensure baseline stabilization.
The […] mutant RAD51 Phe86Glu (F86E) or Ala89Glu (A89E) protein in solution can then be run over the BRC repeat coupled-chip in a Biacore instrument (Biacore AB, Uppsala, Sweden) or other suitable measuring device for surface-plasmon resonance. Reference corrected data was analysed using BIAevalution software (3.2V) and sensorgrams plotted. […]

T1 sequence (P51587 1517-1551 limits assumed): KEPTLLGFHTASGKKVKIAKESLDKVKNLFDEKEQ
T1 sequence (Q06609 whole entry F86E partner): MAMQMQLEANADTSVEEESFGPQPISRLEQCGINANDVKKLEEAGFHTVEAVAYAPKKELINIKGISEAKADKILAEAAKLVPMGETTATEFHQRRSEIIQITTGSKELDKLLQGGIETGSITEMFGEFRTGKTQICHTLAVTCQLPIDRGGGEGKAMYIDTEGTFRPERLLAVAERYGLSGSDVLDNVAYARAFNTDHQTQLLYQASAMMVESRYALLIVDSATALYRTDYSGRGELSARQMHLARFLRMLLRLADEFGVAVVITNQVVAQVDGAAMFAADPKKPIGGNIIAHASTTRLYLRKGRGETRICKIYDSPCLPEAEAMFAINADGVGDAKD

B1: RAD51 F86E: non-oligomerising mutant RAD51 with Phe86 replaced by glutamic acid (protein, UniProt Q06609 2-339, looked up, variant F86E)
DNA repair protein RAD51 …: AMQMQLEANADTSVEEESFGPQPISRLEQCGINANDVKKLEEAGFHTVEAVAYAPKKELINIKGISEAKADKILAEAAKLVPMGETTATEFHQRRSEIIQITTGSKELDKLLQGGIETGSITEMFGEFRTGKTQICHTLAVTCQLPIDRGGGEGKAMYIDTEGTFRPERLLAVAERYGLSGSDVLDNVAYARAFNTDHQTQLLYQASAMMVESRYALLIVDSATALYRTDYSGRGELSARQMHLARFLRMLLRLADEFGVAVVITNQVVAQVDGAAMFAADPKKPIGGNIIAHASTTRLYLRKGRGETRICKIYDSPCLPEAEAMFAINADGVGDAKD
binding to the BRC4 coupled-chip: binding can easily be detected
